The values below come from patent US20210269480A1 (published 2021).

*1 amine or outer side, *2 acyl side, *3 side chain or, on linkers, in order; H or OH if unused. Bridges are numbered along the chain shown (N, C = ends). Where no end group is shown, it is not given here. [ ]: non-standard residue; d: D form. TATA = O=C(CC[*:1])N1CN(C(=O)CC[*:2])CN(C(=O)CC[*:3])C1; 1Nal = N[C@@H](Cc1cccc2ccccc12)C(=O)O; 2Nal = N[C@@H](Cc1ccc2ccccc2c1)C(=O)O; Hyp = O=C(O)[C@@H]1C[C@@H](O)CN1; hArg = N=C(N)NCCCC[C@H](N)C(=O)O; Aib = CC(C)(N)C(=O)O; βAla = NCCC(=O)O; Sar = CNCC(=O)O

T1: human Nectin-4 (human, UniProt Q96NY8 32-349)
T1 construct: a Gly32-Ser349 FLAG construct is described only under the SPR assay; also called PVRL4
T1 sequence (looked up): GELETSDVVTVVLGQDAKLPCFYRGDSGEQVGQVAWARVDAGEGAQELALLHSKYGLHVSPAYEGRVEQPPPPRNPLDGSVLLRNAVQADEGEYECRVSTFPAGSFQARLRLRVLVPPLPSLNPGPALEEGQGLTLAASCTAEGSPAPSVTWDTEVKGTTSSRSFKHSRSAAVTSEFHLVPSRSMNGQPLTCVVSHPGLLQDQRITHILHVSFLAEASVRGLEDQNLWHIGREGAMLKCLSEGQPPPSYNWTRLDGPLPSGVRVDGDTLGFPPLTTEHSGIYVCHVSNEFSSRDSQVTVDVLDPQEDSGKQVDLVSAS

For this assay, the target named is T1, human Nectin-4. Nature of the assay: FP competition, tracer SEQ ID NO 217. The procedure: Peptides were diluted to an appropriate concentration in assay buffer as described in the direct binding assay with a maximum of 5% DMSO, then serially diluted 1 in 2. […] Measurements were conducted as for the direct binding assay, however the gain was determined prior to the first measurement. Data analysis was in Systat Sigmaplot version 12.0 where the mP values were fit to a user defined cubic equation to generate a Ki value: […]
On to SDNCPFGCMKDWSWPIWCA (linker 4-8-18 via TATA) [BCY3387], for which the Ki (commonly a dissociation constant, usually derived from enzyme kinetics or from competition with a known ligand) was found to be 234 nM.

Regarding Ac-CP[2Nal][dD]CM[hArg]NWSTPIWC (linker 1-5-15 via TATA) [BCY8031], the Ki stood at 3.6 nM.

Ac-QK[2Nal]CAPLSDYWCNRIC (linker 4-12-16 via TATA) [BCY7997] registered a Ki of 22 nM.

For Ac-CPF[dK](MeO‑dPEG12)CM[hArg]NWSTPIWC (linker 1-5-15 via TATA) [BCY8089], the Ki turned out to be 8 nM.

Turning to Ac-CP[1Nal][dD]CM[hArg]NWSTPIWC (linker 1-5-15 via TATA) [BCY8030], the Ki stood at 2.5 nM.

Regarding Ac-CPF[dD]CM[hArg]NWSTP[Hyp]WC (linker 1-5-15 via TATA) [BCY8037], the Ki came to 5.6 nM.

In turn, Ac-QKWCAPLSDYWC[dD]RIC (linker 4-12-16 via TATA) [BCY8000] showed a Ki of 60 nM.

Consider Ac-C[Aib]F[dD]CM[hArg]NWSTPIWC (linker 1-5-15 via TATA) [BCY8041], for which the Ki came out at 39.1 nM.

Turning to Ac-CAPLSDYWCNRIC (linker 1-9-13 via TATA) [BCY8044], the Ki amounted to 170 nM.

On to Ac-QKWCAPLSDY[1Nal]CNRIC (linker 4-12-16 via TATA) [BCY7998], for which the affinity, expressed as Ki, was 135 nM.

Take DTACPFGCMRGWSWPIWCA (linker 4-8-18 via TATA) [BCY3388]: the Ki amounted to 129 nM.

The molecule {Ac-βAla}-[Sar][Sar][Sar][Sar][Sar]CP[1Nal][dD]CM[hArg]DWSTP[Hyp]WC (linker 6-10-20 via TATA) [BCY8122] had a Ki of 3 nM.

{Ac-βAla}-[Sar][Sar][Sar][Sar][Sar]CP[1Nal][dD]CM[hArg]NWSTP[Hyp]WC (linker 6-10-20 via TATA) [BCY8120] displayed a Ki of 3 nM.

Turning to Ac-CP[1Nal][dR]CM[hArg]HWSTP[Hyp]WC (linker 1-5-15 via TATA) [BCY8129], the affinity, expressed as Ki, was 3.1 nM.

Ac-CP[1Nal][dR]CM[hArg]NWSTP[Hyp]WC (linker 1-5-15 via TATA) [BCY8128] displayed a Ki of 2.2 nM.

Turning to {Ac-βAla}-[Sar][Sar][Sar][Sar][Sar]CP[1Nal][dD]CM[hArg]HWSTP[Hyp]WC (linker 6-10-20 via TATA) [BCY8121], the Ki worked out at 4 nM.

With Ac-CP[1Nal][dD]CM[hArg]NWSTP[Hyp]WC (linker 1-5-15 via TATA) [BCY8124], the Ki is 3.5 nM.

The molecule Ac-CP[1Nal][dD]CM[hArg]HWSTP[Hyp]WC (linker 1-5-15 via TATA) [BCY8125] came in with a Ki of 3.1 nM.

In turn, Ac-DDDCPF[dD]CM[hArg]NWSTPIWC (linker 4-8-18 via TATA) [BCY8028] came in with a Ki of 61.9 nM.
